# In patent publication US20080234198A1 (Eli Lilly, published 2008):
# Changes are numbered by the printed parent chain.
# T1: human VPAC2 receptor (human, UniProt P41587 24-438)
# T1 sequence (looked up): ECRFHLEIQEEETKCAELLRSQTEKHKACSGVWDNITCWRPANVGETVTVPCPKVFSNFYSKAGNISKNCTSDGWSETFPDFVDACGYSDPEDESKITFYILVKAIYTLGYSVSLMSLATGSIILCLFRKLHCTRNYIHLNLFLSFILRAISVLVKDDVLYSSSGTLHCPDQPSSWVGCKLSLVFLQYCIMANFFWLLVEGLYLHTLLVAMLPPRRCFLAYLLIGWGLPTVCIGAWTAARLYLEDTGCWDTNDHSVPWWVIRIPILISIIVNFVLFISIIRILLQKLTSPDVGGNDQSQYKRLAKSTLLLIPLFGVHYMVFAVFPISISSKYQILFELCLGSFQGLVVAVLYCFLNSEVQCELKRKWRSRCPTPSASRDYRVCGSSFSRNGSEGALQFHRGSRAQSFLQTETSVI
# T2: rat VPAC2 receptor (rat, UniProt P35000 23-437)
# T2 sequence (looked up): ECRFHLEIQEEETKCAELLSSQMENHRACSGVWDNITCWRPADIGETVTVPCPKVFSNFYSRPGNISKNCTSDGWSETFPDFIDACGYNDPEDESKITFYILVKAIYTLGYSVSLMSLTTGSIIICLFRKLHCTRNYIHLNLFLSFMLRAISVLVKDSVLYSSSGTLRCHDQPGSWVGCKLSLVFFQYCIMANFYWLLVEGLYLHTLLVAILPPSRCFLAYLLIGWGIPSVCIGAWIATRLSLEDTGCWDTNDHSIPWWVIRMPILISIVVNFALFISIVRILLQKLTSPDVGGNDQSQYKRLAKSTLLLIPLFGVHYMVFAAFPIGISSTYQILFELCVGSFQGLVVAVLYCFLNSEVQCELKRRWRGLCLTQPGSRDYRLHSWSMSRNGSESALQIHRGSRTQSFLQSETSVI
# T3: rat VPAC1 receptor (rat, UniProt P30083 31-459)
# T3 sequence (looked up): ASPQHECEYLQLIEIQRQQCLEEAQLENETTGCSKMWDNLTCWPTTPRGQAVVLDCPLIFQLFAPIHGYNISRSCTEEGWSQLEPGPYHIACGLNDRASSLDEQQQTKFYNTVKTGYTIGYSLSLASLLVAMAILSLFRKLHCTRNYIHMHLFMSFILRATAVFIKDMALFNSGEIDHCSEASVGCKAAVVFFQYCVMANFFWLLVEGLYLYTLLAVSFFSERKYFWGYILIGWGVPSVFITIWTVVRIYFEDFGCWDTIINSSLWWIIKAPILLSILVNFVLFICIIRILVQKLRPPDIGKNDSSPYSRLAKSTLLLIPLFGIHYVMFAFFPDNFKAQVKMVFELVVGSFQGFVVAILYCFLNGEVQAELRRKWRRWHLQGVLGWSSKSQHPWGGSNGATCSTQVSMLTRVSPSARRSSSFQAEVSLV
# B1: P470 (peptide)
# peptide: HSDAVFTEQYTXXRXQVAAXXYLQSIXXGGPSSGAPPPS
# modifications: C6-HSDAVFTEQY(OMe)TOrnK(CO(CH2)2SPEG20K)RAibQVAAAibOrnYLQSIOrnOrnGGPSSGAPPPS-NH2
# B2: P529 (peptide)
# peptide: B1 peptide with X13L
# modifications: not fully specified; C6-HSDAVFTEQY(OMe)TOrnLRK(WPEG40K)QVAAAibOrnYLQSIOrnOrnGGPSSGAPPPS-NH2
# B3: P497 (peptide)
# peptide: B1 peptide with X13L, I26X, S39C
# modifications: C6-HSDAVFTEQY(OMe)TOrnLRAibQVAAAibOrnYLQSK(CO(CH2)2SPEG20K)OrnOrnGGPSSGAPPPC(PEG20K)-NH2
# B4: P492 (peptide)
# peptide: B1 peptide with X13L, A19X, S39C
# modifications: C6-HSDAVFTEQY(OMe)TOrnLRAibQVAK(CO(CH2)2SPEG20K)AibOrnYLQSIOrnOrnGGPSSGAPPPC(PEG20K)-NH2
# B5: P495 (peptide)
# peptide: B1 peptide with X13L, S25X, S39C
# modifications: C6-HSDAVFTEQY(OMe)TOrnLRAibQVAAAibOrnYLQK(CO(CH2)2SPEG20K)IOrnOrnGGPSSGAPPPC(PEG20K)-NH2
# B6: P517 (peptide)
# peptide: HSDAVFTEQYTXLRXQLAXXXYLQXIXXGGPSSGAPPPCC
# modifications: C6-HSDAVFTEQY(OMe)TOrnLRAibQLAAbuAibOrnYLQAibIOrnOrnGGPSSGAPPPC(PEG20K)C(PEG20K)-NH2
# B7: P519 (peptide)
# peptide: B6 peptide with X19A, L23X
# modifications: C6-HSDAVFTEQY(OMe)TOrnLRAibQLAAAibOrnYAibQAibIOrnOrnGGPSSGAPPPC(PEG20K)C(PEG20K)-NH2
# B8: P521 (peptide)
# peptide: B6 peptide with L23X, X25S
# modifications: C6-HSDAVFTEQY(OMe)TOrnLRAibQLAAbuAibOrnYAibQSIOrnOrnGGPSSGAPPPC(PEG20K)C(PEG20K)-NH2
# B9: P525 (peptide)
# peptide: B6 peptide with L23X
# modifications: C6-HSDAVFTEQY(OMe)TOrnLRAibQLAAbuAibOrnYAibQAibIOrnOrnGGPSSGAPPPC(PEG20K)C(PEG20K)-NH2
# B10: P513 (peptide)
# peptide: B6 peptide with X19A, L23X, X25S
# modifications: C6-HSDAVFTEQY(OMe)TOrnLRAibQLAAAibOrnYAibQSIOrnOrnGGPSSGAPPPC(PEG20K)C(PEG20K)-NH2
# B11: P523 (peptide)
# peptide: B6 peptide with X25S
# modifications: C6-HSDAVFTEQY(OMe)TOrnLRAibQLAAbuAibOrnYLQSIOrnOrnGGPSSGAPPPC(PEG20K)C(PEG20K)-NH2
# B12: P454 (peptide)
# peptide: HSDAVFTEQYTXLRXQVAAXXYLQSIXXXGGPSSGAPPPS
# modifications: not fully specified; C6-HSDAVFTEQY(OMe)TOrnLRAibQVAAAibOrnYLQSIOrnK(WPEG40K)OrnGGPSSGAPPPS-NH2
# B13: P505 (peptide)
# peptide: B12 peptide with X28C, S40C
# modifications: C6-HSDAVFTEQY(OMe)TOrnLRAibQVAAAibOrnYLQSIOrnC(PEG20K)OrnGGPSSGAPPPC(PEG20K)-NH2
# B14: P499 (peptide)
# peptide: B12 peptide with S40C
# modifications: C6-HSDAVFTEQY(OMe)TOrnLRAibQVAAAibOrnYLQSIOrnK(CO(CH2)2SPEG20K)OrnGGPSSGAPPPC(PEG20K)-NH2
# Tests used:
# [1] = molecular target: T1, human VPAC2 receptor; test: cell-based or functional assay
# [2] = molecular target: T1, human VPAC2 receptor; test: filter binding, VPAC2 cell membranes, displacement of 125I-VIP
# Description: Binding assays: Membrane prepared from a stable VPAC2 cell line (see Example 3) or from cells transiently transfected with human VPAC1 or PAC1 are used.
# The assay plate is filled with 25 μL assay buffer, 25 μL membranes (2.5 μg) suspended in assay buffer, 25 μL agonist in assay buffer, and 25 μL tracer (about 40000 cpm) in assay buffer. The filled plate is incubated for 1 hour with shaking.
# The transfer from assay plate to filter plate is conducted. The blocking buffer is aspirated by vacuum filtration and washed two times with flush buffer. 90 μL is transferred from the assay plate to the filter plate. The 90 μL transferred from assay plate is aspirated and washed three times with 200 μL flush buffer. The plastic support is removed. It is dried for 1 hour at 60° C. 30 μL Microscint is added. The count is performed.
# [3] = molecular target: T2, rat VPAC2 receptor; test: cell-based or functional assay
# [4] = molecular target: T3, rat VPAC1 receptor; test: cell-based or functional assay
Binder,Human VPAC2 Receptor: Alphascreen (EC50; nM) [1],IC50 [2],Rat VPAC2 Receptor: DiscoveRx: (EC50; nM) [3],Rat VPAC1 Receptor: DiscoveRx: (EC50; nM) [4],Human VPAC2 Receptor: DiscoveRx (EC50; nM) [1]
B1,83.3 nM,263 nM,111 nM,> 1000 nM,–
HSDAVFTEQYTXLRXQVAAXXYLQSIXXGGPSSGAPPPS (C6-HSDAVFTEQY(OMe)TOrnLRAibQVAAAibK(W-PEG40K)YLQSIOrnOrnGGPSSGAPPPS-NH2) [P410],129 nM,264 nM,318 nM,> 1000 nM,–
B2,170 nM,192 nM,199 nM,1180 nM,–
B3,176 nM,146 nM,345 nM,> 1000 nM,–
B4,510 nM,156 nM,963 nM,> 4000 nM,–
B5,117 nM,142 nM,–,–,–
HSDAVFTEQYTXLRXQXAAXXYLQSIXXGGPSSGAPPPS (C6-HSDAVFTEQY(OMe)TOrnLRAibQK(WPEG40K)AAAibOrnYLQSIOrnOrnGGPSSGAPPPS-NH2) [P533],2380 nM,–,–,–,–
HSDAVFTEQYTXLRXQVAAXXYLQXIXXGGPSSGAPPPC (C6-HSDAVFTEQY(OMe)TOrnLRAibQVAAAibOrnYLQAibIOrnOrnGGPSSGAPPPC(PEG40K)-NH2) [P509],13 nM,11.2 nM,28.2 nM,328 nM,–
HSDAVFTEQYTXLRXQCAXXXYLQXIXXGGPSSGAPPPS (C6-HSDAVFTEQY(OMe)TOrnLRAibQC(PEG40K)AAbuAibOrnYLQAibIOrnOrnGGPSSGAPPPS-NH2) [P545],45 nM,79.9 nM,99.5 nM,380 nM,–
HSDAVFTEQYTXLRXQVAAXXYLQSIXXGGPSSGAPPPS (C6-HSDAVFTEQY(OMe)TOrnLRAibQVAAAibK(CO(CH2)2SPEG20K)YLQSIOrnOrnGGPSSGAPPPS-NH2) [P473],26.5 nM,256 nM,25.5 nM,> 1000 nM,–
HSDAVFTEQYTXLRXQLAXXXYLQSCXXGGPSSGAPPPS (C6-HSDAVFTEQY(OMe)TOrnLRAibQLAAbuAibOrnYLQSC(PEG40K)OrnOrnGGPSSGAPPPS-NH2) [P543],84.2 nM,56.3 nM,101 nM,355 nM,8.9 nM
HSDAVFTEQYTXLRXQVAAXXYLQSXXXGGPSSGAPPPS (C6-HSDAVFTEQY(OMe)TOrnLRAibQVAAAibOrnYLQSK(WPEG40K)OrnOrnGGPSSGAPPPS-NH2) [P535],98.4 nM,145 nM,318 nM,> 1000 nM,–
HSDAVFTEQYTXLRXQLAXXXYLQXCXXGGPSSGAPPPS (C6-HSDAVFTEQY(OMe)TOrnLRAibQLAAbuAibOrnYLQAibC(PEG40K)OrnOrnGGPSSGAPPPS-NH2) [P541],45.8 nM,59.8 nM,102 nM,665 nM,–
HSDAVFTEQYTXLRXQVAXXXYLQXIXXGGPSSGAPPPC (C6-HSDAVFTEQY(OMe)TOrnLRAibQVAAbuAibOrnYLQAibIOrnOrnGGPSSGAPPPC(PEG40K)-NH2) [P511],7.6 nM,7.2 nM,13.9 nM,61.9 nM,–
HSDAVFTEQYTXLRXQVCAXXYLQSIXXGGPSSGAPPPS (C6-HSDAVFTEQY(OMe)TOrnLRAibQVC(PEG40K)AAibOrnYLQSIOrnOrnGGPSSGAPPPS-NH2) [P478],49.9 nM,30 nM,120 nM,2050 nM,–
HSDAVFTEQYTXLRXQVAAXXYLQSCXXGGPSSGAPPPC (C6-HSDAVFTEQY(OMe)TOrnLRAibQVAAAibOrnYLQSC(PEG20K)OrnOrnGGPSSGAPPPC(PEG20K)-NH2) [P503],147 nM,41.5 nM,520 nM,> 4000 nM,–
HSDAVFTEQYTXLRXQVAAXXYLCSIXXGGPSSGAPPPC (C6-HSDAVFTEQY(OMe)TOrnLRAibQVAAAibOrnYLC(PEG20K)SIOrnOrnGGPSSGAPPPC(PEG20K)-NH2) [P501],131 nM,111 nM,272 nM,> 1000 nM,–
B6,7.5 nM,3.7 nM,10 nM,92.4 nM,–
B7,30.3 nM,51.6 nM,–,–,–
B8,22.1 nM,67.1 nM,33.1 nM,602 nM,–
B9,25 nM,41.8 nM,44 nM,1140 nM,–
B10,28.9 nM,50.5 nM,–,–,–
B11,5.8 nM,4.8 nM,5.3 nM,20.4 nM,–
B12,59.9 nM,36.6 nM,79.6 nM,1230 nM,–
B13,40.5 nM,26.1 nM,42.6 nM,639 nM,–
B14,57.7 nM,34 nM,68.2 nM,804 nM,–
